Measured values as given in patent US20250258178A1 (SHIONOGI, published 2025).

T1: Peptide #15 (human)
T1 construct: 15-mer of human HRG on the peptide microarray; the printed position spans only 14 residues
T1 peptide: HHPHGHHPHGHHPHC

T2: Peptide #18 (human)
T2 construct: 15-mer of human HRG printed on a PEPperCHIP peptide microarray
T2 peptide: HGHHPHGHHPHCHDF

T3: Peptide #23 (human)
T3 construct: 15-mer of human HRG printed on a PEPperCHIP peptide microarray
T3 peptide: HGHHPHCHDFQDYGP

T4: Peptide #26 (human)
T4 construct: 15-mer of human HRG printed on a PEPperCHIP peptide microarray
T4 peptide: HPHCHDFQDYGPCDP

T5: human histidine-rich glycoprotein (HRG), purified from human plasma (human, UniProt P04196 19-525)
T5 construct: also called human purified HRG; human purified HRG protein
T5 sequence: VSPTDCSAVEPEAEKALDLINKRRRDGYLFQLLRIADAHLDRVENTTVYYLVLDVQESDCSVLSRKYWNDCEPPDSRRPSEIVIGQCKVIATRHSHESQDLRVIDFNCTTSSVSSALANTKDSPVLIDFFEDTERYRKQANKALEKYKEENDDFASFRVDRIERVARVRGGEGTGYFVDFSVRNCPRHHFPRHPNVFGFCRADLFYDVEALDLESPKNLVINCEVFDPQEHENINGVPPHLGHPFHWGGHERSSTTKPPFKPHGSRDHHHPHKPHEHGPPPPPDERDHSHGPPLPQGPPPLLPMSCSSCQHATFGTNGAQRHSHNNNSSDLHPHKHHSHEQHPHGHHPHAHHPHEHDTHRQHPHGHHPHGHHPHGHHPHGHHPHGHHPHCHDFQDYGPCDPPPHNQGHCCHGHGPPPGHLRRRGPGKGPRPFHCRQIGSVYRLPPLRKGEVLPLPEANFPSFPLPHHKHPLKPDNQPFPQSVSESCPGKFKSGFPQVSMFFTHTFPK


Legend:
Peptide #15 = target: T1, Peptide #15; assay: peptide microarray, fluorescent anti-mouse IgG
Protocol: (§1) An overlapping peptide scanning method was performed to find out specific antibody-binding peptide epitopes. The amino acid sequence of the HRG protein was obtained in NCBI protein database. PEPperPrint (registered trademark) (Heidelberg, Germany) was commissioned to prepare PEPperCHIP peptide microarrays designed from HRG protein sequences. Each peptide consisted of an overlapping peptide library having 15 amino acid residues overlapping 14 amino acid residues and was extended at the N- and C-terminus with a neutral GSGSGSG linker to ensure that the peptides were separated from each other. […] After treatment of 21 types of anti-HRG monoclonal antibodies, it stained with an anti-mouse IgG polyclonal secondary antibody followed by reading fluorescence intensity on a scanner to quantify protein-antibody binding.
(§2) Each microarray was processed as follows. Before incubation with a sample, a standard buffer was applied on slides followed by treating with a blocking buffer. The microarray was treated with a fluorescently-labeled anti-mouse IgG secondary antibody followed by the measurement of background fluorescence intensity caused by non-specific interactions using a scanner.
(§3) The microarray was incubated with the 21 types of anti-HRG monoclonal antibodies. The microarray was stained with a fluorescently labeled anti-mouse IgG secondary antibody. The fluorescence intensity at each position was measured by a scanner.

Peptide #18 = target: T2, Peptide #18; assay: peptide microarray, fluorescent anti-mouse IgG
Protocol: as §1, §2, §3

Peptide #23 = target: T3, Peptide #23; assay: peptide microarray, fluorescent anti-mouse IgG
Protocol: as §1, §2, §3

Peptide #26 = target: T4, Peptide #26; assay: peptide microarray, fluorescent anti-mouse IgG
Protocol: as §1, §2, §3

[1] = target: T5, human histidine-rich glycoprotein …; assay: sandwich ELISA, HRG captured by solid phase 9-1F
Protocol: (§4) The capture antibody solution was dispensed at 25 μL per well into 384-well Maxisorp plates (NUNC), and the plates were incubated at room temperature for 3 hours. The plates were washed twice with 120 μL of washing solution per well (0.05% Tween 20-containing PBS). A blocking solution (1% BSA-containing PBS) was dispensed at 30 μL per well, and the plates were incubated at room temperature for 3 hours. The blocking solution was removed followed by dispensing the standard substance for evaluation at 20 μL per well (n=2), and the plates were incubated at room temperature for 3 hours. After washing the plates four times with the washing solution as described above, the solution of each detector antibody was dispensed at 10 μL per well, followed by dispensing a horseradish peroxidase-streptavidin solution (0.05 μg/mL) at 10 μL per well, and the plates were incubated at room temperature for 1 hour. After washing the plates four times with the washing solution as described above, a chromogenic substrate solution (TMB (3,3′,5,5′-tetramethylbenzidine)) was dispensed at 20 μL per well followed by incubating the plates at room temperature for 10 minutes, then a reaction stop solution 0.5 M H₂SO₄ was added at 20 μL/well, and the absorbance at 450 nm was measured.
(§5) The results regarding the evaluation of combinations chosen from 21 types of anti-HRG monoclonal antibodies are shown in Table 1. In Table 1, the absorbance at a wavelength of 450 nm of each combination was determined as follows: less than 1.0 OD: −, 1.0 OD or more and less than 2.0 OD: +, 2.0 OD or more and less than 3.0 OD: ++, and 3.0 OD or more: +++. The combinations of antibodies which could construct a sandwich ELISA system having enough level of absorbance change were 86 sets evaluated as ++ or +++ in Table 1.

[2] = target: T5, human histidine-rich glycoprotein …; assay: sandwich ELISA, HRG captured by solid phase 75-2D
Protocol: as §4, §5

Row | Binder | binding result (Peptide #15) | binding result (Peptide #18) | binding result (Peptide #23) | binding result (Peptide #26) | absorbance at 450 nm [1] [OD] | absorbance at 450 nm (OD450) [2] [od]
1 | anti-HRG monoclonal antibody 75-2D (antibody, V domains shown, Mouse hybridoma monoclonal; also called clone No. 75-2D) VH: QVQLQQSGAELMKPGASVKISCKATGYTFSSYWIEWVKQRPGHGLEWIGEILPGSGRTNYNEKFKGKATFTADTSSNTAYMQLSSLTSEDSAVYYCARYSYFYYFDYWGQGTTLTVSS VL: DNVLTQSPAIMSASLGERVTMTCTASSSVSSSYLHWYQQKPGSSPKLWIYSTSNLASGVPARFSGSGSGTSYSLTISSMEAEDAATYYCHQYHRSPWTFGGGTKLEIK | binds | binds | binds | binds |  | 
2 | anti-HRG monoclonal antibody 69-1A (antibody, V domains shown, Mouse hybridoma monoclonal; also called clone No. 69-1A) VH: EVKLEESGGGLVQPGGSMKLSCAASGFTFSDAWMDWVRQSPEKGLEWVAEIRSKANNHGTYYAESVKGRFTISRDDSKSSVYLRMNSLSAEDTGIYYCTRPFAYWGQGTLVTVSA VL: DVVVTQTPLSLPVSLGDQASISCRSSQSLVHIDGNTYFHWYVQKPGQSPKLLIYKVSNRFSGVPDRFSGSGSGTDFTLKISRVEAEDLGVYFCSQSTHVPLTFGAGTKLELK |  |  |  |  | < 1 | 2 to 3
